The chains are these.
B1: TCN-542 (5079_A16) (antibody, V domains shown)
VH: QVQLQESGPGLVKPSQTLSLTCTVSGGSISSGNYYWNWVRQHPGKGLEWIGYIYYRGSTFYNPSLKSRVTISIDTSKNQFSLRLSSVTAADTAVYYCAKDTRSSLDNYQYGMDVWGQGTTVTVSS
VL: QTVVTQEPSLTVSPGGTVTLTCASSTGAVTSSYFPNWFQQKPGQAPRPLIYSTTIRHSWTPARFSGSLLGGKAALTLSGVQPEDEADYYCLLYSGGDPVAFGGGTKLTVL
B2: TCN-538 (3206_O17) (antibody, V domains shown)
VH: QITLKESGPTLVKPTQTLTLTCVFSGFSLSITGVRVGWIRQPPGKALEWLALISWDDEKHYSPSLQSRLTITKDTSKNQVVLTMTNLDPVDTATYYCARSTDRGHVLRYFGWMLPGDAFDVWGQGTMVTVSS
VL: DIVMTQSPDFLPVSLGERATINCKSSQRVLYSSNNKNYLAWYQLKPGQPPKLIIYWASTRESGVPDRFSGSGSGTEFTLTISSLQAEDVAVYYCQQYYSRPYTFGQGTKLEIK
B3: TCN-539 (5056_A08) (antibody, V domains shown)
VH: QVQLVESGGGVVQPGRSLRLSCAASEITFITYAMHWVRQAPGKGLEWVALISDDGSNKFYADSVKGRFTISRDNSKNTLYLQMNSLRAEDTAAYYCAREGVYFDSGTYRGYFDYWGQETLVTVSS
VL: EIVLTQSPATLSLSPGERATLSCRASQSVSSYLAWYQQKPGQAPRLLIYDASNRATGIPARFSGSGSGTDFTLTISSLEPEDFAVYYCQQRSHWPPITFGQGTRLEIK
B4: TCN-552 (5249_I23) (antibody, V domains shown)
VH: QVQVVQSGAEVKKPGSSVRVSCQASGGTFMNYAIIWVRRAPGQGLEWMGGIIPVFPTPNYAQMFQGRVTISTDESRSTSFLELTNLRYEDTAVYYCARRIYHGGNSGFDFWGQGTLVTVSS
VL: EIVLTQSPATLSLSPGERATLSCRASQSVGNYLAWYQQKPGQAPRLLIYDSSNRAPGIPARFSGSGSGTDFTLTISSLAPEDFAVYYCQQRSKWPPMYSFGHGTKLEIK
B5: TCN-543 (5081_G23) (antibody, V domains shown)
VH: QVHLVQSGAEVRKPGDSVKVSCKTSGYTFSTYPVAWVRQVPGQGLEWMGWISTYNGNTNFAQNFQGRVTLTTDTTTNTAYMEVRSLKFDDTAVYYCARVEGSYRDFWNNQNRFDPWGQGTLVTVSS
VL: SYVLTQPPSVSVAPGQTARISCGGSNIGGKSVHWYQQKPGQAPVLVVYDDSGRPSGIPERFSGSNSGDTATLTISRVEAGDEADYFCQVWDNFGGVFGTGTKVTVL
B6: TCN-546 (5089_L08) (antibody, V domains shown)
VH: QVQLQQWGAGLLKPSETLSLTCGVYGGSLSDYYWSWIRQPPGKGLEWIGEINHSGGTNYNPSLKRRVTISVDTSKKQFSLKMNSVTAADTAVYYCARGTDPDTEVYCRAGNCAAFDFWGQGTLVTVSS
VL: EIVLTQSPGTLSLSPGERATLSCRASHFVIGRAVAWYQQKPGQAPRLLIYGASSRATGIPDRFSGSGSGTDFTLTISRLETEDFAVFYCQHYGSSPRYAFGQGTKLEIK
B7: TCN-551 (5243_D01) (antibody, V domains shown)
VH: EVQLVQSGSEVKKPGESLKISCKGSGYSFSNYWIGWVRHMPGKGLEWMGIIYPGDSDTRYSPSFQGQVTMSADKSSSTVYLQWSSLKASDTAIYYCARRGGHSFGYGSGGDTHSEFDSWGQGTLVTVSS
VL: QSVLTQSPSVSAAPGQKVTISCSGSDSNIGDYFVCWYQHLPGKPPQLLIYENNKRPSGIPDRFSGSKSGTSATLGITGIQTGDEADYYCATWDGSLSAWVFGGGTKLTVL
B8: TCN-540 (5060_F05) (antibody, V domains shown)
VH: QVQLVQSGGGVVQPGRSLRLSCAASGFTFSSYAMHWVRQAPGKGLEWVAIISYDGNDQYYTDSVKGRFTISRDSSKVYLQMHRLRPEDTAVYYCAKEFETSGYFHGSFDYWGQGILVTVSS
VL: QSALTQPASVSGSPGQSITISCTGTSSDVGGYNYVSWYQQHPGKAPKLLIYEVTNWPSGVSNRFSGSKSGNTASLTISGLQAEDEADYYCSSYAGSSTWVFGGGTRVTVL
B9: TCN-544 (5082_A19) (antibody, V domains shown)
VH: QVQLQESGPGLVKPSETLSLTCTVSRGSIGHYFWSWIRQPPGKGLEWIGYISYSGSTKYNPSLRSRVTISVDTSKNQFSLNLNSVTATDTALYYCAREDYDILTGAGPGMEVWGQGTTVTVSS
VL: QSMLTQPPSASGTPGQRVTISCSGSSSNIGSNTVNWFKHLPGTAPKLLIYRNDLRPSGVPDRFSGSKSGTSASLAISGLQSEDEADYYCATWDDSLNGFYVFGTGTKVTVL
B10: TCN-545 (5082_I15) (antibody, V domains shown)
VH: QVQLQQWGAGLLKPSETLSLSCAVFGGSFSDYYWTWIRQPPGKGLEWIGEIKHSGRTNYNPSLESRVTISVDTSKNQFSLKLSSVTAADTAIYYCARGTDPDTEGYCRSGSCSAFDFWGQGTLVTVSS
VL: EIVLTQSPGTLSLSPGERATLSCRASHFVNYRSLAWYQQTPGQVPRLLIYGASTRATGIPDRFSGSGSGTDFTLTISRLEPEDFAVYFCQQYGGSPRYTFGQGTRLEIK
B11: TCN-537 (3194_D21) (antibody, V domains shown)
VH: QVQLQQWGSGLLKPSETLSLTCAVYGGSFRDDYWTWIRQPPGKGLEWIGEINHSGRTNYNPSLKSRVTISVDTSLKQFSLKVISVTAADTAVYYCARGTSHVSRYFDWLPPTNWFDPWGQGTQVTVSS
VL: DIVLTQSPGTLSLSPGERATLSCRASQSVSSSYLAWYQQKPGQAPRLVMYGAATRATGIPDRFSGSGSGPDFTLTISRLEPEDFAMYYCQQYGNSPITFGQGTRLEIK
B12: TCN-547 (5092_F11) (antibody, V domains shown)
VH: QVQLQESGPGLVKPSQTLSLTCTVSGDSISSVDHYWSWIRQHPVKGLEWIGFMYYSASTYYNPSLKSRVTISTDTSKNQFSLRLSSVTAADTAVYYCARGTCAGDCSLHYYYYGLDVWGQGRTVTVSS
VL: DIQMTQSPSSLSASVGDRVTITCRASQSISSYLNWYQHKPGKAPKVLMYAVSILQSGVPSRFSGSGSGADFTLTISSLQPEDFATYYCQQSYSSPLTFGGGTKVEIK
B13: TCN-550 (5096_F06) (antibody, V domains shown)
VH: QVQLQESGPGLVKPSETLSLTCTVSGASINSHYWSWIRQPPGKGLEWIGYVYYSGSTTYNPSLKSRVTLSVDTSKNQFSLNLSSVTAADTAFYYCARHPYDVLTGSGDWFDPWGQGTLVTVSS
VL: SYVLTQAPSVSVAPGQTARITCGGNAIGSKKVHWYQHKAGQAPVLVVYDDTDRPSGIPERFSGSNSWSTATLTINRVEAGDEADYYCQVWDFTIDHVVFGGGTKLTVL
B14: TCN-548 (5092_P01) (antibody, V domains shown)
VH: QVQLQESGPGLVKPSETLSLTCTVSSGPMSDYYWSWIRQPPGKGLEWIGHVSVSHGGRTKSNPSVMSRVTISVETSKNQFSLKLTSVTAADTAVYYCARLNYYDRSGYHSPDGPSNNWFDPWGQGTLVTVSS
VL: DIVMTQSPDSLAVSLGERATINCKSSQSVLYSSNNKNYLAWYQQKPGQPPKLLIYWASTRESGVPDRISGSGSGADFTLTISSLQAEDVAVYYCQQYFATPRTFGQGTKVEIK
B15: TCN-549 (5092_P04) (antibody, V domains shown)
VH: QVQLVQSGAEVKKPGASVKVSCKASGYTFTGYYMHWVRQAPGQGLEWMGWINPNSGDTNYAQKFQGRVTMTRDTSITTAYMELSSLRSDDTAVYYCARDSPYSSSWSFFDYWGQGPLVTVSS
VL: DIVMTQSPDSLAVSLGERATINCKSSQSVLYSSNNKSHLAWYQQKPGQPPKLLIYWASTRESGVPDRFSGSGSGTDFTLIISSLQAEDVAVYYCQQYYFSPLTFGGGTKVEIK
B16: TCN-558 (5248_H10b) (antibody, V domains shown)
VH: QVQLVQSGSEVKKPGTSVKVSCTASGSVFTNYGISWVRQAPGQGLEWMGGIIPLFGAAKYAQKFQGRVTITADESTKTVYMELSRLTSKDTAIYFCAKAPRVYEYYFDQWGQGTPVTVSS
VL: EIVMTQFPATLSVSPGERVTLSCRASQSVSNNLAWYQQKPGQPPRLLIYDASTRATGVPAKFSGTGSGTEFTLSISSLQSEDFAVYYCQQYHNWPPSYSFGLGTKLEIK
B17: TCN-557 (5081_A04) (antibody, V domains shown)
VH: QVQLVQSGAEVKKPGASVKVSCKASGHTFTGYYIHWVRQAPGQGLEWMGWINPDSGATSSAQNFQGRVTMTGDTSSSTAYMELSRLSFDDTAVYYCARVLFTSPFDFWGEGTLVTVSS
VL: QAVVTQEPSLAVSPGGTVTLTCGSSTGAVTRGHYPYWFQQKPGQAPRALIYDSAGNRHSWTPARFSGSLLGGKAALTLSGAQPEDEAEYYCLLSYSGVWVFGGGTKLTVL
B18: TCN-556 (5089_K12) (antibody, V domains shown)
VH: QVQLVQSGAEVKKPGASVKVSCKASGYTFIGYDMHWVRQAPGQGLEWMGWINAKRGGTNYAQKFQGRVTMTRDTSISTAYMELNSLRSDDTAVYYCARGVGSRTTIFGVLNPEFDYWGQGTLVTVSS
VL: QSALTQPPSASGSPGQSVTISCTGSSSDVGGYDYVSWYQQHPGKAPKLLIYEVTKRPSGVPDRFSGSKSGNTASLTVSGLQAEDEADYYCSSYAGNYNHVFGPGTKVTVL

The first test deals with T1, hemagglutinin (HA) of influenza A/Solomon Islands/3/06 H1N1 (Influenza A virus A/Solomon …). In words: cell-based or functional assay.
In the case of B1, the “% Neutralization” value turned out to be 98%.

Regarding B2, the “% Neutralization” value was determined as 35%.

Regarding B3, the “% Neutralization” value came out at 97%.

Consider B4, for which the “% Neutralization” value amounted to 57%.

On to B5, for which the “% Neutralization” value worked out at 100%.

On to B6, for which the “% Neutralization” value amounted to 0%.

Consider B7, for which the “% Neutralization” value came out at 100%.

Turning to B8, the “% Neutralization” value amounted to 100%.

B9: the “% Neutralization” value came out at 95%.

For B10, the “% Neutralization” value came to 98%.

B11: the “% Neutralization” value is 89%.

The target in a further test is T1, hemagglutinin (HA) of influenza …. In words: ELISA, inactivated whole virions coated; transfection supernatant set 5.
With B1, the OD450 was 3.6 OD450.

Molecule B2 yielded an OD450 of 3.59 OD450.

B12 yielded an OD450 of 0.09 OD450.

In the case of B13, the OD450 worked out at 0.13 OD450.

The molecule B3 had an OD450 of 0.07 OD450.

Molecule B14 returned an OD450 of 0.13 OD450.

B4 showed an OD450 of 3.61 OD450.

As to B5, the OD450 turned out to be 3.63 OD450.

The molecule B6 showed an OD450 of 3.67 OD450.

B7 displayed an OD450 of 3.65 OD450.

With B8, the OD450 worked out at 0.09 OD450.

In the case of B9, the OD450 worked out at 0.07 OD450.

With B15, the OD450 was determined as 0.09 OD450.

As to B16, the OD450 was 3.52 OD450.

B17 registered an OD450 of 3.58 OD450.

As for B10, the OD450 amounted to 1.36 OD450.

On to B18, for which the OD450 is 3.64 OD450.

Consider B11, for which the OD450 turned out to be 3.56 OD450.

Another test has as its target hemagglutinin (HA) of influenza A/Japan/305/57 H2N2 (Influenza A virus A/Japan/305/1957 …, UniProt P03451 16-562). Described as above.
Regarding B1, the OD450 is 0.07 OD450.

As for B2, the OD450 was determined as 3.37 OD450.

Consider B12, for which the OD450 came out at 0.09 OD450.

Molecule B13 registered an OD450 of 0.08 OD450.

B3 showed an OD450 of 0.07 OD450.

B14 had an OD450 of 0.09 OD450.

Consider B4, for which the OD450 came out at 2.68 OD450.

B5 had an OD450 of 3.64 OD450.

B6 showed an OD450 of 0.07 OD450.

In the case of B8, the OD450 amounted to 3.61 OD450.

B9: the OD450 was 0.07 OD450.

As to B15, the OD450 amounted to 0.08 OD450.

As to B16, the OD450 came to 3.31 OD450.

B17: the OD450 was found to be 3.59 OD450.

In turn, B10 registered an OD450 of 0.1 OD450.

In turn, B18 returned an OD450 of 3.64 OD450.

On to B11, for which the OD450 came to 3.48 OD450.

Source of the values: patent US20120207760A1 (THERACLONE SCIENCES, published 2012).
